Source: patent US20200010567A1 (NEURIMMUNE, published 2020)

T1: GP3: H-(GP)3HHHHHH-NH2
T1 peptide: H-GPGPGPHHHHHH-NH2

T2: GP2: H-(GP)2HHHHHH-NH2
T2 peptide: H-GPGPHHHHHH-NH2

T3: GP4: H-(GP)4HHHHHH-NH2
T3 peptide: H-GPGPGPGPHHHHHH-NH2

T4: aggregated C9orf72 (GA)20 DPR protein peptide preparation (C-terminal amide)
T4 construct: also called aggregated (GA)20; amyloid-fibril like aggregated (GA)20
T4 peptide: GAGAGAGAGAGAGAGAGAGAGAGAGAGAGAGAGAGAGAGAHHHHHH

T5: monomeric C9orf72 (GA)20 DPR protein peptide preparation (C-terminal amide)
T5 construct: also called monomeric (GA)20
T5 peptide: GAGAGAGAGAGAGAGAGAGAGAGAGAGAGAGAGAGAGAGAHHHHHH


What was measured:
GP3: H-(GP)3HHHHHH-NH2 = target: T1, GP3: H-(GP)3HHHHHH-NH2; assay: indirect ELISA, His-tagged peptide coated at 50 ug/ml, antibody titrated [also D00026 FIG. 7J]
Text: (§1) In brief, dipeptide repeat proteins were synthesized and purified by Schafer-N (Copenhagen, Denmark): GA₂₀: H-(GA)₂₀HHHHHH-NH₂; GA₁₀: H-(GA)₁₀HHHHHH-NH₂; GA₆: H-(GA)₆HHHHHH-NH₂; GA₅: H-(GA)₅HHHHHH-NH₂; GA₄: H-(GA)₄HHHHHH-NH₂; GA₃: H-(GA)₃HHHHHH-NH₂; GA₂: H-(GA)₂HHHHHH-NH₂; GP₂₀: H-(GP)₂₀HHHHHH-NH₂; GP₁₀: H-(GP)₁₀HHHHHH-NH₂; GP₆: H-(GP)₆HHHHHH-NH₂; GP₅: H-(GP)₅HHHHHH-NH₂; GP₄: H-(GP)₄HHHHHH-NH₂; GP₃: H-(GP)₃HHHHHH-NH₂; GP₂: H-(GP)₂HHHHHH-NH₂. GR₂₀: H-(GR)₂₀HHHHHH-NH₂; GR₁₀: H-(GR)₁₀HHHHHH-NH₂; GR₆: H-(GR)₆HHHHHH-NH₂; GR₅: H-(GR)₅HHHHHH-NH₂; GR₄: H-(GR)₄HHHHHH-NH₂; GR₃: H-(GR)₃HHHHHH-NH₂; GR₂: H-(GR)₂HHHHHH-NH₂; PA₂₀: H-(PA)₂₀HHHHHH-NH₂; PA₁₀: H-(PA)₁₀HHHHHH-NH₂; PA₆: H-(PA)₆HHHHHH-NH₂; PA₅: H-(PA)₅HHHHHH-NH₂; PA₄: H-(PA)₄HHHHHH-NH₂; PA₃: H-(PA)₃HHHHHH-NH₂; PA₂: H-(PA)₂HHHHHH-NH₂; PR₂₀: H-(PR)₂₀HHHHHH-NH₂; PR₁₀: H-(PR)₁₀HHHHHH-NH₂; PR₆: H-(PR)₆HHHHHH-NH₂; PR₅: H-(PR)₅HHHHHH-NH₂; PR₄: H-(PR)₄HHHHHH-NH₂; PR₃: H-(PR)₃HHHHHH-NH₂; PR₂: H-(PR)₂HHHHHH-NH₂. 96-well microplates (Corning Incorporated, Corning, USA) were coated with dipeptide repeat protein peptides at a concentration of 50 μg/ml in coating buffer (15 mM Na₂CO₃, 35 mM NaHCO₃, pH 9.42). Non-specific binding sites were blocked for 1 h at room temperature with PBS/0.1% Tween®-20 containing 2% BSA (Sigma-Aldrich, Buchs, Switzerland). Primary antibodies were diluted to the indicated concentrations and incubated 1 h at room temperature, followed by incubation with a donkey anti-human IgG Fcγ-specific antibody conjugated with HRP (Jackson ImmunoResearch Laboratories, Inc., West Grove, USA). Binding was determined by measurement of HRP activity in a standard colorimetric assay. EC₅₀ values were estimated by non-linear regression using GraphPad Prism software (San Diego, USA).

GP2: H-(GP)2HHHHHH-NH2 = target: T2, GP2: H-(GP)2HHHHHH-NH2; assay: as above
Text: as §1

GP4: H-(GP)4HHHHHH-NH2 = target: T3, GP4: H-(GP)4HHHHHH-NH2; assay: as above
Text: as §1

[1] = target: T4, aggregated C9orf72 (GA)20 DPR protein …; assay: sandwich ELISA, preparation captured by anti-His antibody
Method: (§2) 96-well microplates (Corning Incorporated, Corning, USA) were coated with monoclonal mouse anti-His tag antibody (Takara Bio Europe/Clontech, Saint-Germain-en-Laye, France) at a concentration of 10 μg/ml in coating buffer (15 mM Na₂CO₃, 35 mM NaHCO₃, pH 9.42) overnight at 4° C. Non-specific binding sites were blocked for 1 h at room temperature with PBS/0.1% Tween®-20 containing 2% BSA (Sigma-Aldrich, Buchs, Switzerland). After a washing step, his-tagged (GA)₂₀ DPR protein peptide preparations at equal concentration of 5 μM in PBS (pH 7.4) were added for target-trapping by the anti-His tag antibody for 1 h at room temperature. […] Antibody binding to DPR protein peptides was detected by a donkey anti-human IgG Fcγ-specific antibody conjugated with HRP at 1:5000 dilution (Jackson ImmunoResearch Laboratories, Inc., West Grove, USA) for 1 h at RT. Binding was determined by measurement of HRP activity in a standard colorimetric assay. EC₅₀ values were estimated by non-linear regression using GraphPad Prism software (San Diego, USA).

[2] = target: T5, monomeric C9orf72 (GA)20 DPR protein …; assay: as above
Method: as §2

[3] = target: T4, aggregated C9orf72 (GA)20 DPR protein …; assay: indirect ELISA, coated preparation 5 ug/ml
Method: (§3) 96-well microplates (Corning Incorporated, Corning, USA) were coated with monomeric and aggregated (GA)₂₀ DPR protein peptide preparations at a concentration of 5 μg/ml in coating buffer (15 mM Na₂CO₃, 35 mM NaHCO₃, pH 9.42). Non-specific binding sites were blocked for 1 h at room temperature with PBS/0.1% Tween®-20 containing 2% BSA (Sigma-Aldrich, Buchs, Switzerland). Primary antibodies were diluted to the indicated concentrations and incubated 1 h at room temperature, followed by incubation with a donkey anti-human IgG Fcγ-specific antibody conjugated with HRP (Jackson ImmunoResearch Laboratories, Inc., West Grove, USA). Binding was determined by measurement of HRP activity in a standard colorimetric assay. EC₅₀ values were estimated by non-linear regression using GraphPad Prism software (San Diego, USA).

[4] = target: T5, monomeric C9orf72 (GA)20 DPR protein …; assay: indirect ELISA, coated preparation 5 ug/ml
Method: as §3

Row | Binder | binding result (GP3: H-(GP)3HHHHHH-NH2) | binding result (GP2: H-(GP)2HHHHHH-NH2) | binding result (GP4: H-(GP)4HHHHHH-NH2) | EC50 [1] [nM] | EC50 [2] [nM] | EC50 [3] [nM] | EC50 [4] [nM]
1 | NI-308.5G2 (antibody, V domains shown, Recombinant complete human IgG1, kappa) VH: EVQLVQSGADLRNPGASVTVSCTASGYHFADNAINWLRQAPGQRLEWMGWINIYSGNTKYSQNFQGRVTFTRNTSASTAFMHLRSLRSEDTAVYFCARDPDSSGYYLPYFDYWGQGTLVTVSS VL: DIQLTQSPDSLTLSLGERATINCKSSQSVFYNSNNKNYLAWYQQKPGQPPKLLMYWASTRESGVTDRFSGSGSGTDFTLTITNLQAEDVAVYYCQQFYSSPLTFGGGTKVEIK | no binding (tested: about 4x10^5 pM (last point)) | no binding (tested: about 4x10^5 pM (last point)) | no binding (tested: about 4x10^5 pM (last point)) | – | – | – | –
2 | NI-308.18F7 (antibody, V domains shown, Recombinant complete human IgG1, kappa) VH: QVQLQESGPGLVKPSETLSVTCTVSGGSINDYYWNWIRQPAGKGLEWIGRIYASGTINYNPSLQSRVTMSIDTSKNQFSLDLISVSAADTAVYYCARWGQVVGDYYYGMDVWGQGTTVTVSS VL: EIVLTQSPLSLSVTPGEPASISCKSSQSLQHTNGYNYLDWYLLKPGQSPQLLIFLTSNRASGVPDRFSGSGSGTNFTLKISRVEAEDVGVYYCMEGIQLWTFGQGTKLEIK | – | – | – | 2.9 | 0.64 | 0.89 | 0.87
3 | NI-308.15O7 (antibody, V domains shown) VH: QVQLVESGGGVVQPGRSLRLSCAASGFTFSNHAMHWVRQAPGKGLEWVAVISYDGENTYYADSIEGRFTISRDNFKNTLFLQMYSLTADDTAMYFCARGGRRGHFTSYYLDYWGQGTLVTVSS VL: CDIQMTQSPSSLSASVGDRVTITCRASQNIDKYLNWYQQIPGKAPKLLIYAASSLHSGVPSRFSGSGSGTDFSLTISSLQPEDFAIYYCQQSYSSFRTFGQGTKLEIK | – | – | – | 8.1 | 6.3 | 0.78 | 0.53
